This assay deals with complement receptor 2 (CR2, CD21) on human follicular dendritic cells (human (endogenous in tonsil FDCs)) (UniProt P20023).
Chain of complement receptor 2 (CR2, CD21) on human follicular dendritic cells (human (endogenous in tonsil FDCs)) (P20023 21-1033): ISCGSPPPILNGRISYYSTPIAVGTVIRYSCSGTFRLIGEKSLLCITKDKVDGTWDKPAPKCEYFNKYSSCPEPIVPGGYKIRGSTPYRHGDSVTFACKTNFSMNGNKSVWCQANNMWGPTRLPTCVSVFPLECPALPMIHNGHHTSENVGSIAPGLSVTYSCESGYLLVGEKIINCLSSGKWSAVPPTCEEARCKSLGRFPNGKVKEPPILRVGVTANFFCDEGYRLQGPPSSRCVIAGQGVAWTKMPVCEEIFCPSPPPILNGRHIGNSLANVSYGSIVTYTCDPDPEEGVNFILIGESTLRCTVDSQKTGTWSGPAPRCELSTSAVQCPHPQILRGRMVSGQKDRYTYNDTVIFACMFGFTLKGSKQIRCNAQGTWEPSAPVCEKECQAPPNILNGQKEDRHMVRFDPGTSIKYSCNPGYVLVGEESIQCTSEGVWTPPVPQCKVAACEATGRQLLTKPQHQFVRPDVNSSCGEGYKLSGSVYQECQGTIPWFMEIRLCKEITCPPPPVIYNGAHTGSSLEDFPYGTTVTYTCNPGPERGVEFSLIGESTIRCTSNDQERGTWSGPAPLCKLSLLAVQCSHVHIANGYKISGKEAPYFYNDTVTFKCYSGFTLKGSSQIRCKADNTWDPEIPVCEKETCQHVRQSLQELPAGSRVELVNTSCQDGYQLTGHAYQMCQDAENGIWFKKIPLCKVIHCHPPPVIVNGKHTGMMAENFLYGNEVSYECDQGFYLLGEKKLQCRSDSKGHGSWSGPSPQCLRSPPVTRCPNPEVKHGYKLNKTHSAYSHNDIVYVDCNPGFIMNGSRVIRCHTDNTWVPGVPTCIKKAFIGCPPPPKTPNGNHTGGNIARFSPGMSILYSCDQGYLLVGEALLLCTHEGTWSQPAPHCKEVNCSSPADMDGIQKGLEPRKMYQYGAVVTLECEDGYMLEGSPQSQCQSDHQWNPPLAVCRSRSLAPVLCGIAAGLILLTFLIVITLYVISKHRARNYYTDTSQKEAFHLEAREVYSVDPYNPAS

As for “ConM SOSIP.v7 Env trimer fused to human complement fragment C3d (from UniProt P01024 1002-1303)”, the Ca2+ flux of PGT121-expressing Ramos B cells, AUC at 0.01 µg/ml Env-equivalent (tested at 10, 1, 0.1, 0.01 and 0.001 µg/ml); ConM Env alone gave AUC 5 amounted to 442 AUC.

The record behind these values is publication doi:10.1101/2025.06.28.661730.
